Experimental data: patent CN116675768A (WUHAN ABCLONAL INC, dated 2023)

T1: 重组人NEFL蛋白 (human, UniProt P07196 400-543)
T1 construct: Expressed in E. coli Rosetta(DE3) from the vector pET-28a-sumo and purified on a Ni column; also called 人轻肽神经细丝蛋白(NEFL); 神经丝轻链
T1 sequence: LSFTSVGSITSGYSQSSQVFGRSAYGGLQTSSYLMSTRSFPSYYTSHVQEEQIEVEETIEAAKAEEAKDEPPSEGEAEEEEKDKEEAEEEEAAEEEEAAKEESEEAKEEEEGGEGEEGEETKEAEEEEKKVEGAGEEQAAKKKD


Biological target: T1, 重组人NEFL蛋白
Experiment: BLI (Gator); antibody 2 μg/mL, recombinant human NEFL 150 nM and 75 nM

Binder	Kd [nM]	koff [s⁻¹]	kon [M⁻¹ s⁻¹]
兔单克隆抗体1H8 (antibody, V domains shown, also called 抗人NEFL蛋白的兔单克隆抗体1H8; 捕获抗体) VH: QSLEESGGRLVTPGTPLTLTCAVSGIDLSRYGIDWVRQAPGKGLEWIGTVSAGGDSWYASWAKGRFTISKTSSTTVDLEVTSPTTEDTATYFCAKGATLNLWGQGTLVTVSS VL: DPVLTQTPSSTSAAVGGTVTINCQSSQNVYGNNWLAWYQKKPGQSPKLLIISASSLPSGVPSRFKGSGSGTQFTLTISDLECDDAATYYCAGGYSGYIYTFGGGTEVVVKG	2.03	0.000504	248000
兔单克隆抗体2G10 (antibody, V domains shown, also called 抗人NEFL蛋白的兔单克隆抗体2G10; 2G10-biotin) VH: QSLEESGGRLVTPGTRLTLTCTVSGFSLGRYAMGWVRQAPGKGLEWIGIINSYGTTYYASWAKGRFTISKTSTTVDLKITSPTTEDTATYFCARDGYEDYGDYYNAFDPWGPGTLVTVSS VL: DVVMTQTPASVSEPVGGTVTIKCQASQSIGVTLAWYQQKPGQPPKLLIYKASNLASGVSSRFKGSRSGTEYTLTISDLECADAATYYCQCTWYGPSFVGAFGGGTEVVVKG	3.2	0.00043	134000
